Experimental findings from article PMC11257990, “Noncanonical assembly, neddylation and chimeric cullin–RING/RBR ubiquitylation by the 1.8 MDa CUL9 E3 ligase complex” (Nature Structural & Molecular Biology, 2024) are described below.

This assay has as its target T1, UBE2L3 (human, UniProt P68036 1-154).
T1 construct: UBE2L3, human; source: E. coli Rosetta 2 (DE3), purified (glutathione sepharose, TEV cleavage, ion exchange, SEC)
The assay can be described thus: ITC; E2 (300–500 μM) in the syringe, CUL9^ARIH-RBR (25 μM) in the cell; 25 °C; 25 mM HEPES pH 7.5, 150 mM NaCl, 0.5 mM TCEP; 19 × 2 μl injections; single-site model. The settings on record: both partners purified.

T1 sequence (P68036 whole entry): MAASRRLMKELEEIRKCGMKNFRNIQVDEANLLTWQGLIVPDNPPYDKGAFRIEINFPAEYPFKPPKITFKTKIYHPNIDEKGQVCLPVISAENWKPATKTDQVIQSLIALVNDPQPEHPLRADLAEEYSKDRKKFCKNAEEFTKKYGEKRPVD

B1: CUL9^ARIH-RBR (domain or fragment, human, UniProt Q8IWT3 1979-2517, looked up)
chain: SPEAVATLASLQLPAGRTMSPQEVEGLMKQTVRQVQETLNLEPDVAQHLLAHSHWGAEQLLQSYSEDPEPLLLAAGLCVHQAQAVPVRPDHCPVCVSPLGCDDDLPSLCCMHYCCKSCWNEYLTTRIEQNLVLNCTCPIADCPAQPTGAFIRAIVSSPEVISKYEKALLRGYVESCSNLTWCTNPQGCDRILCRQGLGCGTTCSKCGWASCFNCSFPEAHYPASCGHMSQWVDDGGYYDGMSVEAQSKHLAKLISKRCPSCQAPIEKNEGCLHMTCAKCNHGFCWRCLKSWKPNHKDYYNCSAMVSKAARQEKRFQDYNERCTFHHQAREFAVNLRNRVSAIHEVPPPRSFTFLNDACQGLEQARKVLAYACVYSFYSQDAEYMDVVEQQTENLELHTNALQILLEETLLRCRDLASSLRLLRADCLSTGMELLRRIQERLLAILQHSAQDFRVGLQSPSVEAWEAKGPNMPGSQPQASSGPEAEEEEEDDEDDVPEWQQDEFDEELDNDSFSYDESENLDQETFFFGDEEEDEDEAYD
notes: CUL9, human, ARIH-RBR element, residues 1979-2517; also called CUL9 RBR element; source: HEK293S, baculovirus infection, without RBX1, purified; not shown: TwinStrep, N-terminal, cleaved
On to B1, for which the binding result is “binds”.
